Measurements taken from the supplement of paper PMC10567573.
± gives the standard deviation.

Assay: protein stability index of a GFP-peptide fusion (GPS, HEK-293T) (PSI 1-6); higher = more stable
[1] = treatment: DMSO, c terminus: a fixed tail appended
[2] = treatment: MLN4924 1 uM, 8 h, c terminus: a fixed tail appended
[3] = treatment: DMSO, c terminus: native
[4] = treatment: MLN4924 1 uM, 8 h, c terminus: native
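Further: 24-mer peptide tiles fused after GFP, lentivirally expressed, FACS-sorted into six equal bins by GFP/DsRed ratio, decoded by Illumina sequencing, PSI is the read-weighted mean bin number.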

Row | Sequence | protein stability index [1] | protein stability index [2] | protein stability index [3] | protein stability index [4]
1 | QLGLGRGASTFKEEPQTVPEARSR [JUNB] | 5.04 ± 0.1 | 5.22 ± 0.26 | – | –
2 | IAFDGVVGSGGRRDSTARRPRPQG [RTN2] | 4.29 ± 0.17 | 4.26 ± 0.22 | – | –
3 | VTHTEISPEQQFDRSVQRLLATRI [TMEM175] | 3.2 ± 0.28 | 3.34 ± 0.25 | – | –
4 | HRLMTDARRRVCHTEDFQKEEGTV [CPXM2] | 4.76 ± 0.26 | 4.8 ± 0.24 | – | –
5 | WDPSVQSCKEGLSPRGPAPGEEKF [ZNF263] | 5.43 ± 0.1 | 5.46 ± 0.092 | – | –
6 | ENSHTNTEVLRNMGFAAKAMKSVH [CHMP4C] | 3.61 ± 0.28 | 3.77 ± 0.23 | – | –
7 | QTLLGTAKMLLHEGQHPAQLRSDV [PYCR3] | 3.28 ± 0.094 | 3.16 ± 0.39 | – | –
8 | VFFLFPHSVLVDDDGIKVVKVTFN [TMEM106C] | 2.76 ± 0.45 | 2.65 ± 0.74 | – | –
9 | VSTKEQILDLLVLEQFLSILPKEL [ZSCAN9] | 3.21 ± 0.93 | 3.02 ± 0.65 | – | –
10 | PQTRSGPECGLAKKPPEESTCFER [ADAMTSL2] | 5.05 ± 0.22 | 5.08 ± 0.33 | – | –
11 | WSSRSPQERSRVLNQVADLLEQSL [ALDH8A1] | 2.8 ± 0.12 | 3.08 ± 0.54 | – | –
12 | KNSMENGRPPDPADWAVMDVVNYF [SAMD13] | 3.3 ± 0.26 | 3.28 ± 0.2 | – | –
13 | ENLAHHLEIDSGVITLDPQTASRS [TRIM15] | 4.96 ± 0.11 | 4.97 ± 0.27 | – | –
14 | VPEEPPVKKLMRTSTPPPASVINN [ZBED1] | 4.89 ± 0.29 | 4.94 ± 0.19 | – | –
15 | LGGIGFSSCIVCLFVGLYYNVIIG [SLC6A17] | – | 3.92 ± 0.088 | – | –
16 | SLEMDSDEDDSEELEEDDGHGAEQ [EHMT1] | 5.45 ± 0.27 | 5.62 ± 0.38 | – | –
17 | LHPPVDDPQSGELPSERWNPTQNV [CDC34] | 5.02 ± 0.36 | 5.04 ± 0.32 | – | –

Row | Sequence | protein stability index [1] | protein stability index [2] | protein stability index [3] | protein stability index [4]
18 | YSLQMKRVIACQKTAHDSNVLHVA [WDR41] | 2.23 ± 0.14 | 2.38 ± 0.32 | – | –
19 | PGRSALIVAVLCYINLLNYMDRFT [SPNS1] | 2.81 ± 0.88 | 3.44 ± 0.31 | – | –
20 | GIGHKVDAVFMKDGFFYFFHGTRQ [MMP1] | 2.4 ± 0.94 | 2.13 ± 0.23 | – | –
21 | SDNSWVLAGSESLPVETLGPASRM [PBXIP1] | 3.83 ± 0.15 | 4.02 ± 0.5 | – | –
22 | HLNAIRGLPGSFIKEVQKGGPADL [PDZK1] | 3.56 ± 0.34 | 3.99 ± 0.19 | – | –
23 | KAVKDLVVLLFETALLSSGFSLED [HSP90AB1] | 2.92 ± 0.17 | 2.88 ± 0.16 | – | –
24 | LKRSHRESQFLMAKKNFNTNLLE [HESX1] | – | – | 3.36 ± 0.24 | 3.62 ± 0.2
25 | LLQDKQFELALQLAEMKDDSDSEK [VPS39] | 5.19 ± 0.23 | 5.17 ± 0.26 | – | –
26 | FLENLDKSRKGELLKKSDLQKDF [PRIM1] | – | – | 4.7 ± 0.24 | 5.154 ± 0.05
27 | LVAPVLEPGKQERDVYLPAGKWRS [MYORG] | 3.49 ± 0.16 | 3.75 ± 0.2 | – | –
28 | ELIRVEVEILDLNDNSPSFATPER [PCDHGC5] | 2.42 ± 0.26 | 2.43 ± 0.25 | – | –
29 | GGVCCTVTLNFNVPGEFKQDVTVV [GFOD1] | 2.94 ± 0.25 | 2.99 ± 0.16 | – | –
30 | KASLWQFLSSEKQICGTHRQTKKM [TRIM43] | 2.63 ± 0.27 | 2.71 ± 0.24 | – | –
31 | YMYLVIEELTREAVAVDVAVPKRL [HAGHL] | 2.57 ± 0.57 | 2.71 ± 0.41 | – | –
32 | PVKTLPFSPSQFLNFWNKQDTLEL [MYBL2] | 2.36 ± 0.37 | 2.43 ± 0.31 | – | –
33 | LPLPLSLAPPPLPLPAAAVVHVSF [ZBTB22] | 2.34 ± 0.3 | 2.15 ± 0.17 | – | –
